Laboratory results taken from patent US20190048055A1.

Target: CD38 molecules expressed on Daudi human B-cell lymphoma cells (human) (UniProt P28907)
Assay: cell-based or functional assay

anti-CD38 Ab (daratumumab) (antibody) gave an ADCC of human PBMCs against Daudi cells, dose response of anti-CD38 Ab (0.1 nM to 50 nM); lowest antibody concentration with increased killing of 0.1 nM.
